Our source for the Kd values is paper PMC4137956.

For orientation: Kd means a measure of binding affinity in units of concentration.

Bounds are passed on as bounds.

What all share (assay): SPR; biotinylated SIRPα variants bound to streptavidin immobilised on a BIAcore CM5 chip, BIAcore 3000, 37°; dilutions of monomeric recombinant CD47 extracellular domain passed over; affinity from equilibrium binding
In general terms: In SPR one partner is held on a chip, and binding of the other changes the refractive index at the surface.

Test [1] deals with NOD mouse SIRPα + SE mutant, three extracellular IgSF domains (3d) (mouse).
The target of test [2] is NOD mouse SIRPα, N-terminal domain (d1), wild type (mouse).
Test [3] deals with human SIRPα V2, three extracellular IgSF domains (3d) (human) (UniProt P78324).
The target of test [4] is NOD mouse SIRPα + SE mutant, N-terminal domain (d1) (mouse).

Sequence of mouse CD47 IgSF domain, monomeric recombinant extracellular domain (Q61735 19-139): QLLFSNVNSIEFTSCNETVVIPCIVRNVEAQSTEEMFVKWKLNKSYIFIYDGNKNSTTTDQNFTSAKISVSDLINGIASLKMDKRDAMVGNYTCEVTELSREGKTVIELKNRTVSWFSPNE
Sequence of human CD47 IgSF domain, monomeric recombinant extracellular domain (Q08722 19-136): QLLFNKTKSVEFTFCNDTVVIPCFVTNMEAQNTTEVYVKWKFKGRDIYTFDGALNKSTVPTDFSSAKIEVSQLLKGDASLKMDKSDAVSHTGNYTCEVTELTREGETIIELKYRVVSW
Sequence of NOD mouse SIRPα, N-terminal domain (d1), wild type (mouse) (P97797 1-148): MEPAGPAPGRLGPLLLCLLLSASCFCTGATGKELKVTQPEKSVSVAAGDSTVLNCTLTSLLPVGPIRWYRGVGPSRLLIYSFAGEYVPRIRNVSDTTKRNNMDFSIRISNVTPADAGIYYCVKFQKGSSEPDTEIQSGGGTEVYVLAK

As to “human CD47 IgSF domain, monomeric recombinant extracellular domain (from UniProt Q08722-1 19-136) (domain or fragment)”, the Kd was 7.6 µM in test [1], 80 nM in test [2], 600 nM in test [3] and 9.4 µM in test [4].
Consider “mouse CD47 IgSF domain, monomeric recombinant extracellular domain (from UniProt Q61735 19-139) (domain or fragment)”, for which the Kd was 8.6 µM in test [1], 4700 nM in test [2], above 30000 nM in test [3] and 11.8 µM in test [4].
